# Measurements from US7648964B2, “Use of lacritin in promoting ocular cell survival” (University of Virginia Patent Foundation, priority 2004, dated 2010).
# B1: lacritin: recombinant human lacritin from E. coli; mature 119 residue fragment (SEQ ID NO:10) of native lacritin SEQ ID NO:4 (protein, listed as Homo sapiens)
# chain: EDASSDSTGADPAQEAGTSKPNEEISGPAEPASPPETTTTAQETSAAAVQGTAKVTSSRQELNPLKSIVEKSILLTEQALAKAGKGMHGGVPGGKQFIENGSEFAQKLLKKFSLLKPWA
# Columns and labels:
# [1] = test system: 48 kDa band in rat lacrimal cells; test: Tyrosine phosphorylation of 48 kDa band, rat lacrimal cells; format: cell-based
# Protocol: Freshly isolated rat lacrimal acinar cells, and HSG (human salivary gland) ductal and HCE (human corneal epithelial) cell lines were used to study lacritin function. For secretion studies, rat acinar cells were plated serum-free overnight on wells co-coated with 0.05 μM laminin 1 (to ensure adhesion) and 0 to 20 μM lacritin, or alternatively with laminin-1 (0.05 μM) and treated the next day with serum-free medium containing 0 to 162 ng/ml of soluble lacritin for four hours. Unstimulated and stimulated (carbachol 10^−4 M/VIP 10^−8 M) secretions were then collected, assessed (peroxidase assay) and normalized to μg cellular DNA. To study tyrosine phosphorylation, overnight serum-free cultures of both rat lacrimal acinar and HSG cells were washed and treated with 10 ng/ml of soluble lacritin for 0.5, 2.5, 10, and 30 minutes. Py(20) anti-phosphotyrosine antibody immunoprecipitation of cell lysates was then examined in Western blots of 7% SDS PAGE gels using Py(20) and ECL for detection. […] Using an inverted Zeiss 510 LSM for visualization, 50 second baseline images were first recorded. While the laser was running, lacritin was added (final concentration 4 and 40 ng/ml) and the response continually monitored every 786 msec for a minimum of 200 sec.
# fibronectin = fibronectin (Homo sapiens, UniProt P02751); test: ECM binding ELISA; settings: 0-30 nM lacritin
# Protocol: (§1) Binding studies were carried out in 96 well plates coated with 10 μg/well of collagen IV, laminin-1, entactin/nidogen-1, collagen I, fibronectin, vitronectin, EGF, heparin or BMS. Wells were washed, blocked (PBS-T), incubated with 0-30 nM lacritin (in PBS-T containing 1% BSA) for 1 hr (4° C.), washed and detected with anti-lacritin antibody (1/1000) by ELISA.
# nidogen/entactin = target: T1, nidogen/entactin (Homo sapiens, UniProt P14543); test: ECM binding ELISA; settings: 0-30 nM lacritin
# T1 sequence (P14543 29-1247): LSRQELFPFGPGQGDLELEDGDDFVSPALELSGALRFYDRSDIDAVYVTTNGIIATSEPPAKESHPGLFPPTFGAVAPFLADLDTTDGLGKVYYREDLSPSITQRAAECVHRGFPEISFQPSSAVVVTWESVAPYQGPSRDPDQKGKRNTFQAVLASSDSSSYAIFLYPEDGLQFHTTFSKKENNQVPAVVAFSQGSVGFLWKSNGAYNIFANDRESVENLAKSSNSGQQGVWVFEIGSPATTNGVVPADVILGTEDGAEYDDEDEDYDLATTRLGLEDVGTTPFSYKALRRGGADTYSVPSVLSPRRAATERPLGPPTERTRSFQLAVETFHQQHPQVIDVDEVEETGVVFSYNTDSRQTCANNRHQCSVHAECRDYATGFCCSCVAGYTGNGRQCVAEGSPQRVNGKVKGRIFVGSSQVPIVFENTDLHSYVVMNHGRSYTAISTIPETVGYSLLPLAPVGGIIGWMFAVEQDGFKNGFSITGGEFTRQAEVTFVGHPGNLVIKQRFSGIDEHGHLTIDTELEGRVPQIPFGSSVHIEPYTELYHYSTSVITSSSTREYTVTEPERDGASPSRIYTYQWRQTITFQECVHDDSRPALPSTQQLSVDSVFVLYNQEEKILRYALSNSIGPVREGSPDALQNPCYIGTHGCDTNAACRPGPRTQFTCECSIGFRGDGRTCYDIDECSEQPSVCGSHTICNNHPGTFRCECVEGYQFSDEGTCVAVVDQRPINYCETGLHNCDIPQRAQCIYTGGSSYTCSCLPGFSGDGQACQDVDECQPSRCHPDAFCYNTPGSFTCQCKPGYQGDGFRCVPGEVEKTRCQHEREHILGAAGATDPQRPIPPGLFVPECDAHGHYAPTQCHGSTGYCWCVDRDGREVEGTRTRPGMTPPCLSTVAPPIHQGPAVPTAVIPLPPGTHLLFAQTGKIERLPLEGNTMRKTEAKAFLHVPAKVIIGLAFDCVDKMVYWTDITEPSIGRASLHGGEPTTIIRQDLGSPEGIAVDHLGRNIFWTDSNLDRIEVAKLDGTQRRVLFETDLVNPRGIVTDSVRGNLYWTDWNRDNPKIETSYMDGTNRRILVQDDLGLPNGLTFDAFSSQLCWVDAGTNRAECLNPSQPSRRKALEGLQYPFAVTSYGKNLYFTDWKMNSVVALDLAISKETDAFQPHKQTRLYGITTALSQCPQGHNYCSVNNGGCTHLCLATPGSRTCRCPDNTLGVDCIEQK
# Protocol: as §1
# EGF = EGF (Homo sapiens, UniProt P01133); test: ECM binding ELISA; settings: 0-30 nM lacritin
# Protocol: as §1
# laminin-1 = test: ECM binding ELISA; settings: 0-30 nM lacritin
# Protocol: as §1
# collagen IV = test: ECM binding ELISA; settings: 0-30 nM lacritin
# Protocol: as §1
# vitronectin = target: T2, vitronectin (Homo sapiens, UniProt P04004); test: ECM binding ELISA; settings: 0-30 nM lacritin
# T2 sequence (P04004 20-478): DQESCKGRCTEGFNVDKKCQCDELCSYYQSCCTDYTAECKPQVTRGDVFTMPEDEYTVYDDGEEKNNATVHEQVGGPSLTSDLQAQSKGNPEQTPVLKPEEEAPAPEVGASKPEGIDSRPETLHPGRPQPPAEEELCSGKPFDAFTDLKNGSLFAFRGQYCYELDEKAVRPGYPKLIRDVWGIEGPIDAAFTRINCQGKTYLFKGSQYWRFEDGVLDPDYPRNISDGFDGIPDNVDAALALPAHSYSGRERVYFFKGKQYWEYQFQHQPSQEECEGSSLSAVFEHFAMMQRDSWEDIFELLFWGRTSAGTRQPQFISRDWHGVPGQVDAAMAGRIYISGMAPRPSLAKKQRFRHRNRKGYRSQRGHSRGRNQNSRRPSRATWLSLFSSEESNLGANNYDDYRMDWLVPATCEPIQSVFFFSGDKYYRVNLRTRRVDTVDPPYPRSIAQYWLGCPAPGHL
# Protocol: as §1
# collagen I = collagen I (Homo sapiens, UniProt P02452+P08123); test: ECM binding ELISA; settings: 0-30 nM lacritin
# Protocol: as §1
# ECM binding ELISA = settings: 0-30 nM lacritin
# Protocol: as §1
# collagen I, sequence (P02452 162-1218 limits assumed): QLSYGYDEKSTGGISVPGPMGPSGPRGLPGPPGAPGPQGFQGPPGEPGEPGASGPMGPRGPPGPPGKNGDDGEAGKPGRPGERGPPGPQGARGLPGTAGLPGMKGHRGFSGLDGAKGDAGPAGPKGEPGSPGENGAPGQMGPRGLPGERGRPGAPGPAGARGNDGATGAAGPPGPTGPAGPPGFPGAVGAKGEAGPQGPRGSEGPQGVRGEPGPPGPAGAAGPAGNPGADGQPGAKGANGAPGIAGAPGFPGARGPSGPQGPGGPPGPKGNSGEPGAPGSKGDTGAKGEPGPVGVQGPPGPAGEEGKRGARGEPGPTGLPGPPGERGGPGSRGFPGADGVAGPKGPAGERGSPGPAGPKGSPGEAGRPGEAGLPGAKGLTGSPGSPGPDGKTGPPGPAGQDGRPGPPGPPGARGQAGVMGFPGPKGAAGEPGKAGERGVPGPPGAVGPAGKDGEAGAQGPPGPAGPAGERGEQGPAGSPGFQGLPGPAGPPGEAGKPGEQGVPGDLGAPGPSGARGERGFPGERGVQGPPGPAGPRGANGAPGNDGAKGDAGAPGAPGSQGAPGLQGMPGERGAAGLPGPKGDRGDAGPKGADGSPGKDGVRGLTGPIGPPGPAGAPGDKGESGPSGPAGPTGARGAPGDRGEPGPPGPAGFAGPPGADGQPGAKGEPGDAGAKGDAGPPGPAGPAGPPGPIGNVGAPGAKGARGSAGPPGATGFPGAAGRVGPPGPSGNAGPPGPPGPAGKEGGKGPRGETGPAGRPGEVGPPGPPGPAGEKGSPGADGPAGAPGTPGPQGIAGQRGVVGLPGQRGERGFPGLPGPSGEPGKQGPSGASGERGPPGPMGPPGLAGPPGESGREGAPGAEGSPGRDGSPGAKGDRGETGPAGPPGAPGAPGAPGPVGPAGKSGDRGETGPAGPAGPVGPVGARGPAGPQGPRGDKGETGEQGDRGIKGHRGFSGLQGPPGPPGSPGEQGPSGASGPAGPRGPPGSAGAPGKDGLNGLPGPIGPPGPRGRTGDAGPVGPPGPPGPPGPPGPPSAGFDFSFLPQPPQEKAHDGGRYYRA
# collagen I, sequence (P08123 80-1119 limits assumed): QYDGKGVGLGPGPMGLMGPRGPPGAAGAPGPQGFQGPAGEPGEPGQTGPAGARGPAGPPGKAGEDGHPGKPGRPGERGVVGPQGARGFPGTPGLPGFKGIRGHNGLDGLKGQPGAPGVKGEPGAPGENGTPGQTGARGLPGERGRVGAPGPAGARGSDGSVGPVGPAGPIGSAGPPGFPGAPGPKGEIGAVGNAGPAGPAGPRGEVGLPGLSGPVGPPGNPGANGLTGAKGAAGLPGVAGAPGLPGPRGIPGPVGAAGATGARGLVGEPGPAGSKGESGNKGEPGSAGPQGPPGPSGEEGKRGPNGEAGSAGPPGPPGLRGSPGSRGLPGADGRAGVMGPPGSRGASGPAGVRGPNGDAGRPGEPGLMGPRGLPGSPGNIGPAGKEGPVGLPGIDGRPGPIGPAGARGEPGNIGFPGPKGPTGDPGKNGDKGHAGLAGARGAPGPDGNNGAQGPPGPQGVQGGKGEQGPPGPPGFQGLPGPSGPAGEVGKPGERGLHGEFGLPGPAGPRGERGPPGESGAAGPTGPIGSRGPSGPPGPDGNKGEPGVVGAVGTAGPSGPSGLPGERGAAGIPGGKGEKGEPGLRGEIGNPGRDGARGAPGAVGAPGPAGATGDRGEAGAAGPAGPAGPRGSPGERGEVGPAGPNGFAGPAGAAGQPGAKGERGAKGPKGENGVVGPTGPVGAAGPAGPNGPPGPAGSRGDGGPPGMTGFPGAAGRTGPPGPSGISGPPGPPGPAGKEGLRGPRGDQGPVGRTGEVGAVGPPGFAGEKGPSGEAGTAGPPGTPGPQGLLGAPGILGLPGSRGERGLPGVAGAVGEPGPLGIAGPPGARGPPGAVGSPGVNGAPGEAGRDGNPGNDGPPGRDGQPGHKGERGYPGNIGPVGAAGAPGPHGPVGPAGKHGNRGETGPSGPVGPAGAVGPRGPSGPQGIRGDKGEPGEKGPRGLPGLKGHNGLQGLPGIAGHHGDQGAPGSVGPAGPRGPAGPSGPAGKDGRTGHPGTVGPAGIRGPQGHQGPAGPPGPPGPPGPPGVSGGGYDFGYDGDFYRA
# EGF, sequence (P01133 971-1023 limits assumed, species assumed): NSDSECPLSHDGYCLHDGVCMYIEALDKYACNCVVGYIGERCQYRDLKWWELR
# fibronectin, sequence (P02751 32-2477, species assumed): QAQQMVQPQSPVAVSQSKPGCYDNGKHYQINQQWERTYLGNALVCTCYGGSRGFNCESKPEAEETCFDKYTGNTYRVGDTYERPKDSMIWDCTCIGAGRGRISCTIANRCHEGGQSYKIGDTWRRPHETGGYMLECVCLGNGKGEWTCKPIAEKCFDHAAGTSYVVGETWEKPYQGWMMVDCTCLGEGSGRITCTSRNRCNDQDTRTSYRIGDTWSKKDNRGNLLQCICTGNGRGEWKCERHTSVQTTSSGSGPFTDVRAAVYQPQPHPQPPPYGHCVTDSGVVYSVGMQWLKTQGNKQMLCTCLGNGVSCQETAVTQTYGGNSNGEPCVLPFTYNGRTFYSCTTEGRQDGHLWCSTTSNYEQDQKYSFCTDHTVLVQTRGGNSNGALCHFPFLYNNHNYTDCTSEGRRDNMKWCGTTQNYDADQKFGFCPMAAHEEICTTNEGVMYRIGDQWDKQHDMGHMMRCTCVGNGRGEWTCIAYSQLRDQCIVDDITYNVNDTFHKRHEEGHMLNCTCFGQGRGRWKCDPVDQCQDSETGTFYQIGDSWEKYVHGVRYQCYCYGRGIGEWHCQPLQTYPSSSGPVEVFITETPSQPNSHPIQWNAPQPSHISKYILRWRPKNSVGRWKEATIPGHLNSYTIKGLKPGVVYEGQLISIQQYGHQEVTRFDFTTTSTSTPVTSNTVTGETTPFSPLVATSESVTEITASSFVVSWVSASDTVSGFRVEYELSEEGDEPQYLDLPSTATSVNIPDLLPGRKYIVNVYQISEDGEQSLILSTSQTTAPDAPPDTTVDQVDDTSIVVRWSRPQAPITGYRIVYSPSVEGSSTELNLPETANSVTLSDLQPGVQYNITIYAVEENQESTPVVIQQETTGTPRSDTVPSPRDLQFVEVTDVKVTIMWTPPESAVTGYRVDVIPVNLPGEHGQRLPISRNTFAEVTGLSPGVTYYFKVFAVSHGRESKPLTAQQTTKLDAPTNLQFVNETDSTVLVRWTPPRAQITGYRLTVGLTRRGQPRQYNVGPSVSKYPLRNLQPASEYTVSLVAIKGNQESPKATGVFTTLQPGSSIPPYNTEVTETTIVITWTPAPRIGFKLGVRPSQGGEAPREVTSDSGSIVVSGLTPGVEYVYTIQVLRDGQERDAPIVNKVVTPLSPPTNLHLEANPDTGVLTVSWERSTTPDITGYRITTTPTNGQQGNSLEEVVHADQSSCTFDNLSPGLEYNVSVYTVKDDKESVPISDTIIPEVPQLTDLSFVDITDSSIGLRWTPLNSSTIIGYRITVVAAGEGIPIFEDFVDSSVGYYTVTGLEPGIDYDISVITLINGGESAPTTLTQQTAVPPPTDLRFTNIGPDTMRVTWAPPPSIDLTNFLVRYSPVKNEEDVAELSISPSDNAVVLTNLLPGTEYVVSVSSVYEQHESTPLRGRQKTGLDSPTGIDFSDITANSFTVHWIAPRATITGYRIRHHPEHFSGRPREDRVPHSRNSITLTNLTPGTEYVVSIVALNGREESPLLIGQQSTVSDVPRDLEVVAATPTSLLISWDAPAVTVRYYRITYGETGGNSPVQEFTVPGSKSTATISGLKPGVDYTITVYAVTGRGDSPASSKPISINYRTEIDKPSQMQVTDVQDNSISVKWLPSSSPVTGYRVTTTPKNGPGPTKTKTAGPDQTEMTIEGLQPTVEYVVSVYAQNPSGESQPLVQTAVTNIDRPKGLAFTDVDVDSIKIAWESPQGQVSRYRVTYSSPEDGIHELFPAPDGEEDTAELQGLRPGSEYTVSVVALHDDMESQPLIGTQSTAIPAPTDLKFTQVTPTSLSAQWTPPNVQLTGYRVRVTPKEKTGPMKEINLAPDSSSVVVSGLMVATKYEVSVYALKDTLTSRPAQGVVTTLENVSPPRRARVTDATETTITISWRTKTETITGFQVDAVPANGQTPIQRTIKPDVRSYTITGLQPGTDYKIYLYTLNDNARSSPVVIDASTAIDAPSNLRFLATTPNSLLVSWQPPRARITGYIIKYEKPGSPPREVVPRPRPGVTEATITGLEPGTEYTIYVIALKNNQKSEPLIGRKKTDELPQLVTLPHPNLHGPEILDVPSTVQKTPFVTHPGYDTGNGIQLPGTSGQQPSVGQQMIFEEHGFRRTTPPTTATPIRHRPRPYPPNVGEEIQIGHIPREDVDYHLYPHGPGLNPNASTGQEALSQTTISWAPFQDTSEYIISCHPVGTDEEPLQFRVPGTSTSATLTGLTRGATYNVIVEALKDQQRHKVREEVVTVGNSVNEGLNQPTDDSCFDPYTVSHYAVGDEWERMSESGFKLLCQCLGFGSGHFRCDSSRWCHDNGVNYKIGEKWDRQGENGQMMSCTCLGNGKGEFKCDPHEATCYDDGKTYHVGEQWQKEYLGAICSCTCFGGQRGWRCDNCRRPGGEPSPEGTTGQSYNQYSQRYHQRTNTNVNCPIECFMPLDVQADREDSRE
molecule,measurement,setting,value
B1,tyrosine phosphorylation of a 48 kDa band,[1],promoted the transient tyrosine phosphorylation
same,binding to fibronectin,fibronectin,remarkable avidity
same,binding to nidogen/entactin,nidogen/entactin,strong basement membrane binding
same,binding to EGF,EGF,No binding
same,binding to laminin-1,laminin-1,strong basement membrane binding
same,binding to collagen IV,collagen IV,strong basement membrane binding
same,binding to vitronectin,vitronectin,remarkable avidity
same,binding to collagen I,collagen I,No binding
same,binding to heparin,ECM binding ELISA,No binding
